US20260151519A1 (AKTIS ONCOLOGY, published 2026)
Primed or numbered codes have the meaning given here. Where no end group is shown, it is not given here. [ ]: non-standard residue; d: D form. The star is where a group is joined. Biotin = O=C1N[C@H]2[C@H](CS[C@H]2CCCCC(=O)*)N1; Lys(Me3) = C[N+](C)(C)CCCC[C@H](N)C(=O)O; PEG4′ = not defined here

B1: C208 (designed binder)
chain: {Biotin-PEG4′}-CDYDEQFFTALKRLRGADICEYIQASFQYLPGECIEEILDNLGCS
modifications: cysteine pairing not given here
B2: C197 (designed binder)
chain: {Biotin-PEG4′}-CEYDEQFFTALKRLRGDDICDYIQASFQYLPGLCIEEILDNLGCS
modifications: cysteine pairing not given here
B3: C190 (designed binder)
chain: {Biotin-PEG4′}-CDYDEQFFTALKRLRGGDICEYIQASFQYLPGLCIEEILDNLGCS
modifications: cysteine pairing not given here
B4: C247 (designed binder)
chain: {Biotin-PEG4′}-CDYDEQFFTALARLRGADICEYIQASFQYLPGECIEEILDNLGCS
modifications: cysteine pairing not given here
B5: C253 (designed binder)
chain: {Biotin-PEG4′}-CEYDEEFFTALARLRGGDICQYIQA[Lys(Me3)]FQYLPALCIEEILDNLGCS
modifications: cysteine pairing not given here

What was measured:
[1] = target: T1, Human Nectin-4 (human, UniProt Q96NY8 32-349, limits assumed); test: SPR, Biacore T200, target immobilised, 1:1 model
T1 construct: Protein immobilised on the SPR chip; also called target protein
T1 sequence: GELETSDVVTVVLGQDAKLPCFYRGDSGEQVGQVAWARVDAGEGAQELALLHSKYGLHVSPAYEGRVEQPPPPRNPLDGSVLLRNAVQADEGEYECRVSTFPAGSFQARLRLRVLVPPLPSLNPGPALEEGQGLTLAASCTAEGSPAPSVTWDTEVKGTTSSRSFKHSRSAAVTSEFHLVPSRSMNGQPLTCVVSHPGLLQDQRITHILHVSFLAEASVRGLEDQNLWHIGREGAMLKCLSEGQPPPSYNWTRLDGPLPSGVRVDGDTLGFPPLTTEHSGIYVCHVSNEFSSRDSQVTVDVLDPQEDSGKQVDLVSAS
Procedure: Surface plasmon resonance (SPR) analyses were performed using Biacore T200 (GE Healthcare). Target protein (“ligand”) was immobilized to a CM5 Series S sensor chip (Cytiva) using amine-coupling chemistry. Running buffer was 0.05% surfactant P20 in HEPES buffered saline (HBS-P), pH 7.4 (Cytiva). Immobilization was performed at 25° C. Carboxyl groups in each flow cell were activated using a 1:1 mixture of 0.4 M 1-ethyl-3-(3-dimethylaminopropyl)-carbodiimide in water (EDC) and 0.1 M N-hydroxysuccinimide in water (NHS) for 7 minutes. The ligand was prepared in 10 mM sodium acetate pH 5 (Cytiva). Pulsatile injections were made to target a specific immobilization level. Any remaining amine-reactive esters on the chip surface were blocked with a 7-minute injection of 1 M ethanolamine, pH 8.5. Three 10-second pulses of 50 mM sodium hydroxide were then made to remove any unbound ligand. Reference cells were modified using amine coupling chemistry, omitting ligand injection.
Increase in signal (RU) is proportional to an increase in binding events between the analyte and ligand surface. The injection was then stopped, and dissociation was measured. […] Measured association (kₐ, 1/Ms⁻¹) and dissociation (kd, s⁻¹) were fit to a 1:1 binding model to calculate a dissociation equilibrium constant, KD(M) for each analyte.

[2] = target: T2, Human Nectin-4 expressed on cells (human, UniProt Q96NY8 32-510); test: competition binding assay (DELFIA, fluorescence at 615 nm) on HT-1376 cells: 12 concentrations of C253 against 10 nM Eu-labelled C307 as the displaced tracer
T2 construct: Endogenous on HT-1376 cells; also called endogenous Nectin-4 on HT-1376 cells; cell surface Nectin-4
T2 sequence: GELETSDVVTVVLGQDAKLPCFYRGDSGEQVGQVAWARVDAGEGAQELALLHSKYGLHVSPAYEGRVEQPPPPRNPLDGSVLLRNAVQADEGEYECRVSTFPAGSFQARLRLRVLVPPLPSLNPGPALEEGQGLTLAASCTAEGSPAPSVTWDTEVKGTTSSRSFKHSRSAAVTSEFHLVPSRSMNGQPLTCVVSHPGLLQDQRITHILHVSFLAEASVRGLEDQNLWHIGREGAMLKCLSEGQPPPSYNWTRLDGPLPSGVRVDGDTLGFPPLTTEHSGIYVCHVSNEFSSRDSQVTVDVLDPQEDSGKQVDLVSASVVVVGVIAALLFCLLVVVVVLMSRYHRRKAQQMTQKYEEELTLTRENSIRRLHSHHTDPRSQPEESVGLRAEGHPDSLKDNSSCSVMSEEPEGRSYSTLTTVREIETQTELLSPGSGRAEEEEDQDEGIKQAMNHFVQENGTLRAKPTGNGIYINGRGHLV
Procedure: (§1) A competition binding assay was utilized to determine the Kᵢ for miniproteins bound to Nectin-4 expressed on the surface of cancer cells. […] Miniprotein incubations occurred for 90 min to reach binding equilibrium. […] After miniprotein incubations, the wells were washed to remove unbound ligand and treated according to manufacturer instructions for a DELFIA® (dissociation-enhanced lanthanide fluorescent immunoassay, Revvity Health Sciences). In brief, washed wells were incubated with 15 μL of 2 M HCl for 2 h at 37° C., after which 17 μL of 2 M NaOH and 30 μL of DELFIA® enhancement solution were added to each well and incubated for an additional 30 min. The remaining Eu reacted with the DELFIA® enhancer solution to generate fluorescence measured on the Envision instrument. Relative fluorescence units (RFUs) were measured as a function of test article concentration in order to calculate an IC50. The Ki can then be calculated using the Cheng-Prusoff equation for converting a measured IC50 to Ki: […]

[3] = target: T2, Human Nectin-4 expressed on cells; test: DELFIA competition against 10 nM C307, HT-1376 cells
Procedure: as §1

[4] = target: T2, Human Nectin-4 expressed on cells; test: flow cytometry dose response, biotinylated C253 detected with Strep-PE, Delta MFI = C253 MFI minus vehicle MFI, HT-1376-P cells
Procedure: Fluorescent imaging for Nectin-4 binding was conducted using assays as described in Example 3. Briefly, Nectin-4 knockout HT-1376 cells were generated via CRISPR/Cas9 mediated gene deletion followed by single cell cloning. […] Flow cytometry was performed to measure on-target binding to cell surface Nectin-4. […]

Binder	Kd [1] [nM]	IC50 (read off the curve) [2] [nM]	Ki [3] [nM]	EC50 (read off the curve) [4] [nM]
B1	0.302	–	–	–
B2	0.212	–	–	–
B3	0.318	–	–	–
B4	0.283	–	–	–
B5	0.255	~2	0.82	~0.8
